Results from patent publication US20090074771A1 (MacroGenics, published 2009).

Experiments:
[1] = biological target: human FcγRIIB (CD32B) on cells (human) (UniProt P31994); assay: double-staining FACS on CHO cells with full-length FcγRIIB, isotype control pre-incubation
[2] = biological target: T1, FcγRIIIA coated on ELISA plates (UniProt P08637 17-208, limits assumed); assay: direct ELISA, receptor-coated plate
T1 construct: 100 ng/well on the plate

[3] = biological target: T2, soluble extracellular domain of human FcγRIIB (CD32B), produced in mammalian (293/293H) cells (human, UniProt P31994 43-217); assay: direct ELISA, receptor-coated plate
T2 construct: extracellular domain; also called mammalian FcγRIIB; soluble monomeric human CD32B
T2 sequence (looked up): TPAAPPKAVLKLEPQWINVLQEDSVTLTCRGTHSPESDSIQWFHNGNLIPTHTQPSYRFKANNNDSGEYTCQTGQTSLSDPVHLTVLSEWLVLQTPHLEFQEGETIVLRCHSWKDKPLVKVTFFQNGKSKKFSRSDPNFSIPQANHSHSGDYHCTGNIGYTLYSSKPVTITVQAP

[4] = biological target: T3, CD32A (H131 form) on THP-1 monocytic cells (human, UniProt P12318 34-317); assay: FACS on THP-1 cells
T3 construct: whole, on cells
T3 sequence (looked up): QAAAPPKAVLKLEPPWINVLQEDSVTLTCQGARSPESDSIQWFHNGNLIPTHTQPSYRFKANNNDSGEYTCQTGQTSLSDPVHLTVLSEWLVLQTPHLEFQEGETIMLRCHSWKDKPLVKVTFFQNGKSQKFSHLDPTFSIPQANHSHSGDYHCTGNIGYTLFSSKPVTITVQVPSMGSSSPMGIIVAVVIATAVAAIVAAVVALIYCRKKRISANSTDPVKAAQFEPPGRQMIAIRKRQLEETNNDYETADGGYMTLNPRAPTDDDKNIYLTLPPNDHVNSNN
Method: Recognition of CD32B on the cell surface. Experiments were carried out to test the ability of the antibodies to discriminate CD32B from CD32A expressed on cells and to recognize the native CD32B molecule on human cell lines.

[5] = biological target: T4, soluble extracellular domain of human CD32A-R131 (human, UniProt P12318 34-217); assay: SPR (BIAcore), antibody captured, soluble monomeric receptor injected
T4 construct: extracellular domain; Monomeric analyte in BIAcore, 100 nM
T4 sequence (looked up): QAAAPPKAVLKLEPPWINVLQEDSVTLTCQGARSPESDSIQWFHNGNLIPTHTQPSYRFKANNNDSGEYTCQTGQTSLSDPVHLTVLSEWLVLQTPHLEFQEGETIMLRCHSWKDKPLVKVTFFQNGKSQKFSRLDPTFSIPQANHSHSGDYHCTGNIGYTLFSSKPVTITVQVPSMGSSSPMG

T1 sequence (P08637 17-208 limits assumed): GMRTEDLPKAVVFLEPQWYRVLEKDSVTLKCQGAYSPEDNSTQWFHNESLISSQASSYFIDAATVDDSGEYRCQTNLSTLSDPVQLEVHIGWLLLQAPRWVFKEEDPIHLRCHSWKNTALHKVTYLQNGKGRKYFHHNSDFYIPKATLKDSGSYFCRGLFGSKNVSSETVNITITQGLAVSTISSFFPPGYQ

Question: Which percent of cells stained [1] does the source give for aggregated human IgG (ligand) here?
Answer: The percent of cells stained was 60%.

B1: mouse monoclonal antibody produced by clone 3H7 (antibody, V domains shown)
VH: EVKFEESGGGLVQPGGSMKLSCAASGFTFSDAWMDWVRQGPEKGLEWVAEIRNKANNLATYYAESVKGRFTIPRDDSKSSVYLHMNSLRAEDTGIYYCYSPFAYWGQGTLVTVSA
VL: DIQMTQSPSSLSASLGERVSLTCRASQEISGYLSWLQQKPDGTIRRLIYAASTLDSGVPKRFSGSWSGSDYSLTISSLESEDFADYYCLQYVSYPYTFGGGTKLEIK
notes: also called 3H7 antibody; 3H7 supernatant
Question: Does B1 bind [2]?
Answer: Result: no binding

B2: mouse monoclonal antibody produced by clone 2B6 (antibody, V domains shown)
VH: QVQLQQPVTELVRPGASVMLSCKASDYPFTNYWIHWVKQRPGQGLEWIGVIDPSDTYPNYNKKFKGKATLTVVVSSSTAYMQLSSLTSDDSAVYYCARNGDSDYYSGMDYWGQGTSVTVSS
VL: DILLTQSPAILSVSPGERVSFSCRTSQSIGTNIHWYQQRTNGFPRLLIKNVSESISGIPSRFSGSGSGTDFILSINSVESEDIADYYCQQSNTWPFTFGGGTKLEIK
notes: also called 2B6 antibody; m2B6
Question: How did the “fold binding relative to AT10, FL18.26 and IV.3” value [3] turn out when B2 was run?
Answer: Its value is ≤ 4.5 fold.

Question: Does B2 bind [4]?
Answer: Result: no binding

Question: Does B2 bind [5]?
Answer: Result: no binding (tested: 100 nM soluble receptor)
